From the supplement of paper PMC7125110
± gives the standard error. Variants at the floor of the assay were thinned out.

B1: glmS ribozyme (parent)
chain: AUAAAAGCGCCAGAACUACAGAAAUGUAGUUGACGAGGAGGAGGUUUAUCGAAUUUUCGGCGGAUGCCUCCAAA

Key:
Conditions in all cases: with glucosamine-6-phosphate
[1] = variants of: B1; experiment: self-cleavage kobs at 640 uM GlcN6P; higher = faster cleavage; RNA array
Outline: (§1)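 Barcoded glmS ribozyme variants on sequenced MiSeq chips were transcribed in situ by E. coli RNA polymerase and tracked through a hybridised Cy3 probe at 37 °C. Glucosamine-6-phosphate (40 μM to 10 mM) in HEPES/KCl/Mg(OAc)2 buffer was flowed in, and tiles were imaged over ~14 h. Signals were normalised to baseline and to non-cleaving reference variants; per-tile medians were fit to one- or two-exponential decays to give kobs. kcat and KM came from weighted Michaelis–Menten fits across concentrations.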

[2] = variants of: B1; experiment: self-cleavage kobs at 2500 uM GlcN6P; higher = faster cleavage; RNA array
Outline: as §1

[3] = variants of: B1; experiment: self-cleavage kobs at 10000 uM GlcN6P; higher = faster cleavage; RNA array
Outline: as §1

Variant	self-cleavage kobs at 640 uM GlcN6P [1] [s⁻¹]	self-cleavage kobs at 2500 uM GlcN6P [2] [s⁻¹]	self-cleavage kobs at 10000 uM GlcN6P [3] [s⁻¹]
G29C G40C C58G	< 1e-05		
C58U G59C C61U C71A	< 1e-05		
C34A A53G U56C	< 1e-05		
C10U C16U A39U G60U C67G U69G	< 1e-05	< 1e-05	
U57A G63U	< 1e-05		
G51U A52G G59A	< 1e-05	< 1e-05	
C11U U57G G63A	< 1e-05	< 1e-05	
C34U C70A	0.00139 ± 0.00062		
G13C C16U A36G U69C	< 1e-05		
U46G U57C	< 1e-05		
G37U A42C C50A A64U	< 1e-05		
U55A U57G	2.18e-05 ± 1e-05	2.56e-05 ± 7.4e-06	7.86e-05 ± 1.2e-05
G43A U49G C50G U57C	< 1e-05		
G7A A39U A48C	< 1e-05	< 1e-05	
A12U A39C A42U G60A	< 1e-05		< 1e-05
G7U G9A C58A C61A C67U	< 1e-05	< 1e-05	
A33C C34A U57G	< 1e-05		
G29A U69A	7.98e-05 ± 2.2e-05	3.9e-05 ± 9.8e-06	
G44U A48U C67U	0.000119 ± 4.8e-05	0.000418 ± 0.00012	
G38A A52G C68G	7.2e-05 ± 2.5e-05		
U30A G38C A39U	< 1e-05		
G7C C61A G63C	< 1e-05		
U46C C67U	0.000202 ± 5.2e-05	0.000469 ± 0.00013	0.000426 ± 8.9e-05

Variant	self-cleavage kobs at 640 uM GlcN6P [1] [s⁻¹]	self-cleavage kobs at 2500 uM GlcN6P [2] [s⁻¹]	self-cleavage kobs at 10000 uM GlcN6P [3] [s⁻¹]
G32U G35A U55G C68A	< 1e-05	< 1e-05	
G35C G43U G60C	< 1e-05		< 1e-05
U30G G35A A39U U55C	< 1e-05	< 1e-05	
A6C C8U G38C G51C	< 1e-05	< 1e-05	
A6G C11G C34U U45G	< 1e-05		
C11U G13A A48G U56C	< 1e-05		
C8G U54C G60A	< 1e-05	< 1e-05	
A6U C67U C70G	0.000211 ± 6.3e-05		
G35U G38U C67A	< 1e-05		
A36U A53U U65A	< 1e-05	< 1e-05	
C34U A39C C50G	< 1e-05		
G13U U56C A64U	< 1e-05	< 1e-05	< 1e-05
C8G A12U A36C	< 1e-05		
A14C A33C G44C G59U	< 1e-05	< 1e-05	
G37A A64G C67G	< 1e-05		
C8U G35C C68U	< 1e-05		
A15C G37C C70U	< 1e-05		
G63C U69G	5.78e-05 ± 2.2e-05		
G43A U55A C58U	< 1e-05		
A48C U49G	< 1e-05		< 1e-05
C11A A33U A52G C68G	0.000157 ± 6.4e-05		
A48G A52U G59U	< 1e-05	< 1e-05	
G13C A36U G59A	< 1e-05		

Variant	self-cleavage kobs at 640 uM GlcN6P [1] [s⁻¹]	self-cleavage kobs at 2500 uM GlcN6P [2] [s⁻¹]	self-cleavage kobs at 10000 uM GlcN6P [3] [s⁻¹]
G37A A48U U54C	< 1e-05		
C10U G63C U65G C70A C71A	0.000118 ± 4.2e-05		< 1e-05
G32U A64C C71A	< 1e-05	< 1e-05	
G44U C67U C71U	0.00022 ± 6.3e-05	0.00069 ± 0.00025	
U30A G40A C50U	< 1e-05	< 1e-05	
C8U C16A G62U	< 1e-05	< 1e-05	
G35C U54G	< 1e-05	< 1e-05	
C10U G29U U55G	< 1e-05	< 1e-05	
U31A G60U C71A	< 1e-05	< 1e-05	
G13U U31A U45G A48C	< 1e-05	< 1e-05	
A6G G7A C10U G44C G60C	< 1e-05	< 1e-05	
A6U U49C U54A A64U C68U	< 1e-05		
U30C C34A A36G A52U	< 1e-05	< 1e-05	
G13C U31G C61U U69C	< 1e-05		
C34A C67A	< 1e-05		< 1e-05
G29C U49C C50G G51U U65C	< 1e-05	< 1e-05	
C8A G32C	< 1e-05	< 1e-05	< 1e-05
G7C C71A	< 1e-05		< 1e-05
G32A C50U C70G	0.000126 ± 4.6e-05		
U46A U56C C68A	< 1e-05	< 1e-05	
G35U A42U G63C	< 1e-05		
A6C U69G	0.000265 ± 0.00011		
C10A A42G U47C C50G C70U	< 1e-05		

Variant	self-cleavage kobs at 640 uM GlcN6P [1] [s⁻¹]	self-cleavage kobs at 2500 uM GlcN6P [2] [s⁻¹]	self-cleavage kobs at 10000 uM GlcN6P [3] [s⁻¹]
C8U C50A	< 1e-05	< 1e-05	< 1e-05
C50A U54C U57C C70A	< 1e-05		
C8G C67U C70G	< 1e-05		
C16A G44C U54C	< 1e-05		
A14U A15U G35A A39C G40U	< 1e-05		
C50G C58U C61U	0.000479 ± 0.00011		
C8G G32U	< 1e-05	< 1e-05	
U45G U46C C71U	0.000925 ± 0.00024	0.00445 ± 0.001	
U45C U46G C67G	9.48e-05 ± 2.9e-05		
A42U C67A U69G C71U	4.51e-05 ± 2e-05	7.23e-05 ± 1.9e-05	
G7A A15U A33G A36U G38U U57C	< 1e-05	< 1e-05	
C8A C10A A42G G60U	< 1e-05	< 1e-05	
A6C G40C G60U	< 1e-05		
U46A A48G C50U	< 1e-05	< 1e-05	
C8G G29C A42G G51C C58G G59A	< 1e-05		
A33C G44C C58U C61A	< 1e-05	< 1e-05	
G7A C10U C67G	8.24e-05 ± 3.5e-05		
G38A A39U U55G U69G	< 1e-05		
C16U A36G A39C	< 1e-05		
A6U G41A C58A	< 1e-05		
C34U A52G U54G	< 1e-05	< 1e-05	
C19A A33U C50G U56C C58U G63U C68G	0.000599 ± 0.00016		
A33U G41U A48C C68U	< 1e-05		

Variant	self-cleavage kobs at 640 uM GlcN6P [1] [s⁻¹]	self-cleavage kobs at 2500 uM GlcN6P [2] [s⁻¹]	self-cleavage kobs at 10000 uM GlcN6P [3] [s⁻¹]
A53U C58A C68U	9.67e-05 ± 3.2e-05	6.03e-05 ± 2e-05	
G9C C11G	< 1e-05	< 1e-05	< 1e-05
A14U A33G G38A	< 1e-05	< 1e-05	
G13C U31A G38U A39U G40C	< 1e-05		
G13A U49A U69A	0.00011 ± 3.1e-05		
C16U A39U A42C	8.5e-05 ± 2.3e-05	0.000172 ± 3.6e-05	
G9A G44U A52G U65G	< 1e-05	< 1e-05	
U57C G62C C68G	< 1e-05		
U30G U54A C67G	0.000105 ± 2.2e-05		
A12C C34A U69C	< 1e-05		
A42C U56C G60U	< 1e-05		
A39G U45A U57C	0.000107 ± 2.6e-05	0.000294 ± 7.7e-05	
G7U U31C C50G	0.000324 ± 0.00016		
A42C A48U C68G	< 1e-05		
C8G A15G A33C	< 1e-05	< 1e-05	
A42C G43U C70U	< 1e-05	< 1e-05	
C34U G37A A39G	< 1e-05	< 1e-05	
U45G U46A U57G	< 1e-05		
A36G G66U	< 1e-05	< 1e-05	< 1e-05
G43A U46G C70G	< 1e-05	< 1e-05	
U56C C61U C71G	< 1e-05		
U45G U55C C68U	< 1e-05		
A15C G29C G35A C50A	< 1e-05	< 1e-05	

Variant	self-cleavage kobs at 640 uM GlcN6P [1] [s⁻¹]	self-cleavage kobs at 2500 uM GlcN6P [2] [s⁻¹]	self-cleavage kobs at 10000 uM GlcN6P [3] [s⁻¹]
A6U C8A A64U	< 1e-05	< 1e-05	
G9U A36G A39U	< 1e-05	< 1e-05	
C16A C50G G62A A64U	6.11e-05 ± 2.7e-05	9.04e-05 ± 3.5e-05	
C8U A15G C16U U55C	< 1e-05		
A6C G41A U54G G59A G62C	< 1e-05		< 1e-05
A14C G37A A39U C68A	< 1e-05		
C16G G37A U45A	8.21e-05 ± 2.1e-05		
C11A C50G C61A	0.000272 ± 7.9e-05	0.000188 ± 3.7e-05	
G9C A12C C19A G51U U54G G63C C70G	< 1e-05	< 1e-05	
G41U U45A G51C C58G	< 1e-05	< 1e-05	
C8G A15C C16U	< 1e-05		
A6U C50G U55A C71U	0.00151 ± 0.00047		
G9A U55C	< 1e-05	< 1e-05	
C11U A53G G66A	0.000178 ± 4e-05		
A12C U46A G51U U54G G60A C61A C70A	< 1e-05		
G37A G40U U55G	6.13e-05 ± 2.5e-05	6.99e-05 ± 1.6e-05	
C10U G37C G60A	< 1e-05		
G9C C50G G60C C70A	0.000151 ± 4.9e-05	0.000123 ± 3.7e-05	
A14G G21U U31G G38U U57C	< 1e-05	< 1e-05	
